Experimental findings from publication PMC13281853 (The FASEB Journal, 2022) are described below.

The target in data set [1] is ancGR2-LBD (ligand-binding domain of the ancestral glucocorticoid receptor 2), Dex-bound. The experiment in a line: SPR. A general note: Surface plasmon resonance follows binding to a sensor surface in real time, without labels.
The data set “SPR” concerns the molecule itself. Briefly: SPR.

B1: MR-LBD (ligand-binding domain of the mineralocorticoid receptor), Dex-bound (domain or fragment)
chain: QLSTISRALTPSPVMVLENIEPEIVYAGYDSSKPDTAENLLSTLNRLAGKQMIQVVKWAKVLPGFKNLPLEDQITLIQYSWMCLSSFALSWRSYKHTNSQFLYFAPDLVFNEEKMHQSAMYELCQGMHQISLQFVRLQLTFEEYTIMKVLLLLSTIPKDGLKSQAAFEEMRTNYIKELRKMVTKCPNNSGQSWQRFYQLTKLLDSMHDLVSDLLEFCFYTFRESHALKVEFPAMLVEII
Usually Kd stands for the concentration at which binding is half-saturated. Low values mean higher affinity, high ones lower affinity. For the molecule B1, the figures for the Kd (in data set [1]; in “SPR”) were 11.6 ± 1.5 µM and 1.49 ± 0.41 µM, respectively.
